B1: c11450 (antibody, V domains shown)
V domain 1: EVQLAQSGAEMRKPGTTVRISCVISGHTTTDYYVHWVQQAPGKGPQWMGLINFEDANTVYSQSFRGRVSISADISEKTVFLDLTGLTSGDTALYFCTTHTLEKDSGDYVSAFDSWGQGTLLSVSP
V domain 2: QSMLTQPPSISAVPGQKVIISCSGRTSNIGTNFVSWYQQVPGAAPRLLMYDNSNRPSGISDRFSGAKSGSTATLAITALQTEDEADYYCGSWDSGLNPPIFVFGPGTRVFVI
B2: c11475 (antibody, V domains shown)
VH: EARLVESGGGRVQPGGSLRLSCEASGFRFSSYTFNWVRQSPGKGLEWLAKISASPFGRSQVNYAHSVEGRFIISRDNDGNSLRLQMNDLRGGDSGVYYCARAPWQERNLDYNYAMDVWGQGTTVIVSS
VL: ELVLTQSPGTLSLSPGERATVSCRASQSLRRDSLAWYQQKPGHSPRLLIFAASNRVPGIPYRFSGTGSGTQFTLTIEKMEPEDFAVYYCQSYGSSPLYTFGQGTKLDIN
B3: c27236 (antibody, V domains shown)
VH: QVQLVQSGAEVKTPGSSVKVACKTSGGPFSSYAISWIRQAPGEGLEWMGGVTPLFGTARYTQKFQGRLTITTDESTSTTYMSLSGLKSEDTAVYYCASLAYIGSGPKWGQGALVTVSS
VL: DIQMTQSPSAMSASVGERVTITCRASQGISSDLAWFQQKPGKVPERLIYAASNLQSGVPSRFSGSGSGTQFTLTISGLQAEDSATYYCLQHDSYPWTFGQGTKVEIK
B4: c21079 (antibody, V domains shown)
VH: EVQLVQSGGGEARPGDSLRISCAVSGFQFNQYAMSWVRQRPGKGLEWVSSADWTGNSVHYAGSLGDRFSVSRALYGHSLELQMNSLRPEDTAVYYCARQDFYASESRAFSEIHGNFFDLWGQGTRVTVSP
VL: QSALTQPPSASGSPGQSVIISCTGASSDISGHEYVSWYQQHAAKVPKLIIYEVTKRPSGVPDRFIGSRSGNTASLTISGLQADDEADYYCASYRHNDRSYVFGTGTTVAVL
B5: c10840 (antibody, V domains shown)
V domain 1: EVRLDQSGAEMRKPGTSVRLSCTVSGHTTSDFFIHWVKQAPQRGPQWMGLINVEDENVIYAEVFQGRISIVADTSKTTVFLDLSHLTFEDTALYFCTTHTLEKETGDYVAAFDSWGQGTFLSVSS
V domain 2: QSVLTQPPSVSAVPGQKVIISCSGRTSNIGTNFVSWYQQFPGAAPKLLIYDTFHRPSGISDRFSASKSDTSATLAITALQPGDEAEYYCGAWDSGLNPAVFVFGSGTRVFVL
B6: c11673 (antibody, V domains shown)
VH: EVKLVESGGTQVQPGGSLRISCVGSGIRFSSYSFNWVRQAPGKGPEWLAYISASPFGRSKVTYAQSVEGRFTVSRDNDANSLYLQMTGLTRDDTAVYYCARAPYYEGNFHYNYAMDVWGLGTPVIVSS
VL: GVVLTQSPGTLSVSPGERATVSCRASQSLSRDSLVWYQQKPGQPPRLLIFGTSNRVPGIPDRFSGGGSGTQFTLTISRLEPEDFAVYYCQNYGLSPLYSFGQGTKLEIK
B7: c11452 (antibody, V domains shown)
VH: EVKLVESGGTQVQPGGSLRISCVGSGFRFSSYSFNWVRQAPGKGPEWLTYISASPFGRSKVTYAPSVEGRFIVSRDNDANSLYLQMTGLTRDDTAVYHCARAPYYEGNFQYNYAMDVWGLGTTVIVSS
VL: GVVLTQSPGTLSLSPGERATVSCRASQSLSRDSLVWYQQKPGQPPRLLIYGTSNRVPGIPDRFSGGGSGTQFTLTISRLEPEDFAVYYCQNYGLSPLYSFGQGTKLEIK
B8: c10919 (antibody, V domains shown)
VH: EVKLVESGGTQVQPGGSLRISCVGSGFRFSSYSFNWVRQAPGKGPEWLAYISASPFGRSKVTYAQSVEGRFTVSRDNDANSLYLQMTGLTRDDTAVYYCARAPYYEGNFHYNYAMDVWGLGTPVIVSS
VL: GVVLTQSPGTLSVSPGERATISCRASQSLSRDSLVWYQQKPGQPPRLLIYGTSNRVPGIPDRFSGGGSGTQFTLTISRLEPEDFAVYYCQNYGLSPLFSFGQGTKLEIK
B9: c5337 (antibody, V domains shown)
VH: QVRLQESAPRLVKPSETLSLTCTVSGGSIFPFFYSWIRQAPGGGLQWIGRLYSNTGSSKSNPSLHLRVALSVDRSRNQVGLKMTSMTAADTGVYYCVRDIMRDFDDFNGAGGVYGGVDIWGRGTAVTVSS
VL: QFVLTQPPSVSESPGKTISISCTRSSGTFARNSVHWYLQRPGSVPKTVIYDGNRRPSGIPGRFSASIDVSSGSASLTISGLTPEDEAEYYCQSYDGGNHVVFGGGTKVTVL
B10: c5539 (antibody, V domains shown)
VH: QVRLEQWGPGLLKPSETLSLTCAVYGESFDDYSWTWIRQTPSLGLQWIGEIRPFGEIVHKSSLSGRLSFSRDASMRRVYLKLTSVTAADAGVYFCARGPVIYQNPHFYYRGYNVWGQGTTVTVSA
VL: DVAVTQSPRSLVVTPGETATIFCRSSQSLRHGNGMHYLDWYLQKPGQSPQLLIYLTSNRASGVPDRFSGSGSGTEFTLKISRVEADDVGIYYCMQAIQDPRVFGQGTRLELK
B11: c31461 (antibody, V domains shown)
VH: QLQLQESGPGLVKPSETLSLTCSASGVSIGGGSSFLGWIRQPPGMGLEWIVTHYSAAKIYYNPSLQSRVITSLDTSKTQFSLKLTSMTATDTAIYYCARGNWQLQAFDSWGQGILVTVSS
VL: DIQMTQSPSTLSASVGDRVTITCRASQDIRSWLAWYQQKPGEAPKLLIYTASRLHSGVPSRFSGSGSGTEFTLTISSLQPDDFATYYCQQHNSYSGTFGQGTKVEIK
B12: c5221 (antibody, V domains shown)
VH: QPQMKQSGIEVKKPGAAVKVSCKPSGYWFIACGISWVRQAPGRGLEWLGWVYPYNGKVNLARKFWGRVTLTADRSTETAYMELKSLTSDDTAIYYCARDSEQYDAAMPNYFTEYGMDVWGQGTTVIVSS
VL: EIVLTQSPDTLSLSPGETAALSCRASQSITGKGLAWYKQRPGQPPSLFVFGVSKRAAGVPDRVSGSGSGTDYILTIRRLEPEDSAVYFCQQYQDPARTFGQGTKLEIK
B13: c29260 (antibody, V domains shown)
VH: QVRLQESGPGLVRPSETLSLTCLVSGDSITSNYWSWIRQPPGKTLEWIGFMYNSGDANYNPSLQSRVSISADTANNQFALRLTSVTAADTAVYYCARHPSRGSNYDSVTGDTYYYYYGIDVWGPGKAVAVSS
VL: DIQMTQSTPSLSASLGDKITISCQASRDIDTSLNWYQQKPGKSPKLLVVAASTLETGVPSRFSASGSGTHFTLTINDLQRDDVATYFCQQYAALPLTFGGGTRVDLR
B14: c29288 (antibody, V domains shown)
VH: QVRLQESGPGLVRPSETLSLTCLVSGDSITSNYWSWIRQPPGKTLEWIGFMYNSGDANYNPSLQSRVSISADTAKNHFALRLTSVTAADTAVYYCARHPSRGSDYESATGDTYYYYYGMDVWGPGIAVAVSS
VL: DIQMTQSTPSLSASLGDKITISCQASRDIDTSLNWYQQKPGKSPKLLIVAASTLETGVPSRFSASGSGTHFTLTINDLHRDDVATYFCQQYMGLPLTFGGGTRVDLR
B15: c5300 (antibody, V domains shown)
VH: QMQLQESGPGLVKPSETLTVTCYVSGGSISRYHWAWIRQSAGKPLEWIGSVYGNSGSVRSSPSLHTRVALVIGSTYFSLKLKSATAADTAVYYCARELARDFNYDFGHGGSSFGIDVWGRGIMVTVSS
VL: NFILTQPHSVSGSPGKTVIISCTRSSGNIGDNSVQWYQHRPGTSPTTVISEKNRRPSGIPGRFSASIDTSSNSASLTISDLRSEDEAVYYCQSCDGGNRLIFGGGTTLTVL
B16: c13501 (antibody, V domains shown)
VH: QVQLQQWGAGLLKPSETLSLTCAIYGGSFDDNSWTWIRQSPGGGLEWIGEIKYSGTSDYNLSLKSRITMSIDMSKKQFSLKLTSVTAADTGLYFCARARLSKFNSAWSWEHHYYMDVWATGTAVTVSS
VL: DIQMTQSPSSLSASVGDRVTVTCRASQNIGNYLNWYQQKPGKAPKLLIFATSTLHGGVPSRFSGSGSGTDFTLSITNVQSEDVAIYFCQQSYSVPYSFGRGTSLDMR
B17: c1369 (antibody, V domains shown)
VH: QVRLHQWGEGLLRPSDTLSLTCSLSGNVFYRTFFNWIRQSPGKGLEWIAEVSFAGDWTYNPSLKSRVTTYVDGFKYHVSLQMRSMTAADAGVYYCASGGGSFDVDSWGQGIRVTVSS
VL: EIVLTQTPLSSSVTLGQSASISCRSSQSLQHSNGNTYLSWFQQRPGQPPRLLIRKISNRFSEVPDRFTGSGSGTDFTLTIDRVEPEDVGTYYCVQATQFPWTFGQGTTVDIT
B18: c21122 (antibody, V domains shown)
VH: QVQLAQSAAEVKRPGASVKVSCKVSGNTLMEVSIQWVRQTPGKGLEWLGGFAPEKDDWVYAQKFLGRVTMTEDTSTDIAYMHMNSLTSDDTATYYCVGGWQAWGQGTLVTVSS
VL: DIQMTQSPSSLSASVGDRITITCRASQDIINYLAWYQQQAGRAPKSLIYAASSLQSGVPSKFSGSGSGTNFSLTISSLQPEDFATYYCQQYYSYPLTFGGGTKVDLR
B19: c27071 (antibody, V domains shown)
VH: QFRLEQSGAEVKRPGSSVKVSCKATGGTFHTFVLSWVRQAPGQALEWMGGIIPIFGTAKYAQRFQGRVTFTTDEATNTAYMDLRRLTSDDTAVYFCARSATSDTALVDYGDYEADTFYHNHMDVWGGGTSVTVSS
VL: QSVLTQPPSASATPGQRVTISCSGSSSNIGSNSVTWYHQLPGTAPKVLIYSNDRRPSGVPDRFSGSKSGTSASLAISGLQSDDEGDFYCAAWDDSLKSPVFGGGTKLTVL
B20: c18622 (antibody, V domains shown)
VH: EVRLLESGGGLVQPGQSLRLSCAASGFTFRNYALAWVRQTPRKGLEWVSLLSSSGDGAFYADSLKGRFTISRDNSKNTLYLEGHSLRADDSAIYYCVKVRWLQYDWHFDLWGRGALVTVSS
VL: AIRMTQSPSTLSASVGDRVTIACRASQDIGSSLAWYQQRPGQAPRLLIYKASVLEGGVPSRFSGSGSGTEFRLIISSLQADDYATYYCQQYSGYSCTFGQGTKVDIT
B21: c11395 (antibody, V domains shown)
VH: DVQLLQSNPQVTKPGTTMKISCKTSGFTFSDHFIHWVRLTPARGLEWLGLLDPQGGESVTVFSETFKDRVTMTADTSKNIAYMELHTLTSEDTALYFCATTTLENDDGDYVAAFDFWGQGTPVIVSS
VL: QSVLTQTPSVSAAPGQKVTISCSGSTSNIGSNFVSWYQHSPGAAPRLIIYNNAERPSGIPARFSGSKSGSSATLAITGLQTEDEAEYFCAAWNNGLKSAHYVFGTGTRLSVL

Biological target: HIV-1 NL4-3 Env on infected cells (HIV-1 group M subtype B, NL4-3 (pNL4-3 …, strain))

| Binder | binding result |
| --- | --- |
| B1 | binds |
| B2 | binds |
| B3 | binds |
| B4 | binds |
| B5 | binds |
| B6 | binds |
| B7 | binds |
| B8 | binds |
| B9 | binds |
| B10 | binds |
| B11 | binds |
| B12 | binds |
| B13 | binds |
| B14 | binds |
| B15 | binds |
| B16 | binds |
| B17 | binds |
| B18 | binds |
| B19 | binds |
| B20 | binds |
| B21 | binds |

Reference: publication PMC8196545 (Cell reports, 2021)
